Measurements from the RNAGym collection of RNA variant scans (doi:10.1073/pnas.2313332121).

B1: TPR t1 (parent)
chain: GACCAAUCUGCCCUCAGAGCUCGAGAACAUCUUCGGAUGCAGAGGAGGCAGGCUUCGGUGGCGCGAUAGCGCCAACGUCCUCAACCUCCAAUGCAUCCCACCACAUGAUGAUGCCUGAAGAGCCUUGGUUUUUUG

Variants of: B1
Assay: polymerase ribozyme fitness, log enrichment relative to wild type (log ratio); higher = more active; in vitro selection for triplet polymerase activity
Outline: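 Libraries of mutants in each subunit of a heterodimeric triplet polymerase ribozyme were generated by PCR and transcribed. In triplicate, each went through one in vitro selection round: annealing with biotinylated primer, partner subunit and triplets; frozen incubation at −7 °C; gel excision of extended constructs; streptavidin-bead capture; RT-PCR. Fitness, taken from Illumina sequencing of input and output libraries, is the logarithm of a genotype's enrichment over wild-type enrichment, averaged across replicates with inverse-variance weights. The logarithm is base 2, and genotypes needed ≥10 input reads and ≥1 read per output to be kept.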

| Variant | polymerase ribozyme fitness (log ratio) |
| --- | --- |
| C4U G44C C64U A119U U133A | -2.68 |
| C4A A29G C31G A105G A108U A111C C115G C123A | -6.34 |
| A5C G63C C114U | -2.9 |
| C4U G44U G61A C80G C89G C114U U131G | -7.14 |
| C4A G52C | -2.41 |
| C3U U54A A91U | -2.48 |
| C4G A111C | -0.384 |
| A5U A18U C88U | -2.74 |
| A5G G52C C70G C82U | -3.85 |
| C4G C64U U106C C115G | -5.73 |
| C3U U59C A111G G120U | -2.84 |
| A5C A24U | -5.29 |
| C4G C8G C72U A121G | 1.81 |
| A5G G57A G69C | -1.65 |
| C4G G61U G93A | -2.57 |
| C4G C64U C115A C123A | -3.09 |
| A5C C53G U92G G117C U129C U133C | -5.53 |
| A5G A26U U32C | -2.95 |
| C4U A50G G93A G117U A118U | -4.55 |
| C4U C70U C80A | -5.32 |
| C4U G19A C56G U106A C123G | -3.72 |
| C4G C11G C40A G60A C101G U106C | -4.19 |
| C4U C70A G128C | -4.51 |
| A5U A29G A46G C82G G120A | -1.34 |

| Variant | polymerase ribozyme fitness (log ratio) |
| --- | --- |
| C4G C12U C56A C70U A111C U126A | -3.03 |
| A5U C20G A121C C123U | -3.97 |
| A5G C12U G113U U125C | -2.74 |
| C4U A18G | -3.62 |
| C4A U7A G61A | -0.369 |
| C4A C13U C101G | -4.23 |
| A5C C8A A37C G42U C104U | -2.13 |
| C4A C15U G51A C82G C123U | -5.31 |
| C4A U21G G44U G63U C82A C124G | -4.8 |
| A5G U54C G69U A118G U129A | -1.19 |
| A5G A6C C11G C73A G93C | -1.55 |
| A5G G36U A46U G60U A91G U106A | -4.94 |
| A5G G57U A100U | -1.5 |
| A5U C11U G63C C80A A105C G113U | -5.39 |
| C4A A95C C123G | -1.42 |
| C4U G51U A121C | -1.96 |
| C4G A18C C22U C72G G93U U109C G117C | -5.69 |
| A5G U78A G120C | 0.799 |
| C3U U112A | 0.197 |
| A5U C13G C40U U55A U59A C82G | -2.63 |
| A5C A118U U133A | -1.14 |
| A5C G51A C62U U78G | -3.87 |
| A5C G23U G71C U112C U126A U131A | -4.82 |
| C4U A5C C12G C62U C89U C123G | -1.41 |

| Variant | polymerase ribozyme fitness (log ratio) |
| --- | --- |
| C4A A119U | -1.66 |
| A5C C49G C53A U54G C98U U106A G128U | -2.13 |
| C4U G47A C56U C73U C101U A119G G120U G127A | -0.428 |
| C4U C76G C123A | -0.394 |
| A5C G60C | -0.361 |
| C4G G61C C82G C123U | -3.08 |
| C3U U55C C89U C115U | -3.75 |
| A5C A26U | -5 |
| C4U G71U | -0.506 |
| C4U G39U G71U G117A U133A | -3.6 |
| A5C G19A C89A C124G | -1.76 |
| A5U C11G A29G G63A U87G | -1.98 |
| C4G U9A C62G U92A A95G U112C G113A | -5.53 |
| A5U C15G G71C A84U | -4.19 |
| C4U G110A | -1.37 |
| C4U G110U | -1.93 |
| C4U G10C C20A G48U A119G | -3.45 |
| C4G C49A | -2.14 |
| A5U A6G G69U C86A C102A | -2.02 |
| C4G U96A G127U | -1.19 |
| C4A A37U C72U U78A | -1.52 |
| A5C C20A A43C G44C G71A C97U U106A C115A | -6.63 |
| C4A A41C C64U | -1.54 |
| A5U C13G C49A G63U U81G A121C | -3.63 |

| Variant | polymerase ribozyme fitness (log ratio) |
| --- | --- |
| A5C C22A | -4.57 |
| C4U G48U G93A | -2.39 |
| A5C C8G C40U U112G U133G | -0.864 |
| C4A G36C G65U C104U A119G A121U G128U U129A | -6.35 |
| C4G G44U C88A C124A | -1.23 |
| C4U G69C C82A C88G A91U U106A | -5.66 |
| C4U C34A G52C C99A C102U U106C | -6 |
| A5G U55C C72A C73A G77U A121C | -1.86 |
| C4A A29U G48U G71U U109G | -5.09 |
| A5C G35A A41U U112A | -5.8 |
| A5G C114G | -2.13 |
| C4A C13U G63C U81A | -2.72 |
| C4U C11G | 0.407 |
| C4A C15G | -4.24 |
| C4A G61A | -1.34 |
| C4A G61U | -1.15 |
| C4G A5G C11U C73G C89A G113U C114U G122U U129G | -5.02 |
| C4A G48U G61C C89U A121G | -1.77 |
| C4G G57A G58C A95C G113U U125C | -6.6 |
| A5U A43G C102A U116C | -5.9 |
| A5G C89U | -0.12 |
| C4G U14A C73G G120A | -3.16 |
| C4U A41U | -1.8 |
| C4A C73G | -2.98 |

| Variant | polymerase ribozyme fitness (log ratio) |
| --- | --- |
| A5G C72G U87A A118U | -1.92 |
| C4U G69U | -0.399 |
| C4U G69A | -2.91 |
| C4G U21C G45A U78A C124G | 0.886 |
| A5C C72A U96A G127A | -2.31 |
| C4G G44U G61U A66U C72G C82A C85A A111C | -6.11 |
| C4G U9C C70U C89U U96A | -3.09 |
| A5U C70G A119G | -0.737 |
| C4A A24G G48U G60A | -4.54 |
| A5C A18G G63C C88A C101A G120U | -4.57 |
| C4U A43U C56G C89U U112C | -0.836 |
| A5U A41U G69U | 0.0184 |
| A5C U7C G17U C86G | -3.53 |
| C4U G61U | -0.685 |
| C4U G61C | -2.8 |
| A5C C28U U59C C123U | -3.1 |
| A5G C101A C115A | -0.823 |
| C4U G63A | -1.64 |
| A5U C13U U78G C82A C104U U109C | -6.49 |
| A5C C12U | 0.118 |
| A5C G48A | -1.85 |
| A5U C70U | -0.781 |
| C4A C11U G69U C97G | -3.61 |
| A5U C12U A18G C80U C114U | -4.01 |

| Variant | polymerase ribozyme fitness (log ratio) |
| --- | --- |
| A5U C70U C89U G110U | -2.97 |
| C4U C97A | -5.21 |
| C4U C13A A26U U55G C62U | -4.16 |
| C4A C98U | -2.2 |
| C4G U9A U78C U87G C104A C123U | -2.05 |
| C4A U9A C64U U96C | -0.963 |
| C4U G48U U92G G113C | -3.72 |
| C4U A66G C124G | 0.544 |
| C4G A41C G77A A95C | -3.4 |
| A5C C15G U54G C89U U116G G117A C124G | 0.693 |
| A5G G51A A84C C89U U106A U112C | -2.68 |
| C4A C40U C102G C115A | -6.67 |
| C4A C15G G47U C64U C115G A119U G120U G135U | -7.19 |
| C4U C13U U38A C53A | -1.25 |
| C4G C114U | -3.57 |
| A5G C12A U59C | 0.0118 |
| C4U G48C G61U C98U U112C | -0.785 |
| C4A A41U G58C G117A | -7.2 |
| A5U C13G C72A C73U U106C | -3.49 |
| C4U A18C C53A C88G | -3.41 |
| A5C G17U G120A | -3.4 |
| C4U A37G A50C C82A | -1.39 |
| C4U U54A C62G G93C G120U U130C | -5.69 |
| A5G C53A | 0.65 |

| Variant | polymerase ribozyme fitness (log ratio) |
| --- | --- |
| A5U C40A | -2.19 |
| C4U C12U C13U G69C C124G | -0.455 |
| C4U G52A C114A | -2.66 |
| C4G C56A | -2.34 |
| A5U C20A C40A G113C C115U | -4.07 |
| C4A A16U C72U A95C | -3.63 |
| C4A C70G G113A U116A | -6.73 |
| A5G U54C G69C A118G U129A | -2.84 |
| A5G C15U C72A C101U C124U | 0.428 |
| A5C A37U G39C C86A C124G | -3.87 |
| A5G C12A U132A U133A | -1.41 |
| C4G A18U | -4.14 |
| C4A C40U G61U | -1.92 |
| C4U G63U C124G | 0.825 |
| C4A C13G C49G C88G | -4.57 |
| C4U G71A G77U | -1.79 |
| A5G C13U A103U | -4.92 |
| C4A G42U G69U | -1.62 |
| C4U C11G C49U G51A C72U C80U C94G | -1.9 |
| A5U A6G C86A C102A | -3.72 |
| A5U C13G C53G A118U | -2.18 |
| A5G C11G A16G G63U A74C G77U A95C G117U | -2.32 |
| A5G U54G G69U | -0.999 |
